These results are taken from publication PMC9293779, “Elucidation of binding preferences of YEATS domains to site-specific acetylated nucleosome core particles” (The Journal of Biological Chemistry, 2022).

What all share (experiment): ITC
Assay [1] deals with T1, H3K4ac (1–19) peptide (Homo sapiens).
T1 chain: ARTKQTARKSTGGKAPRKQ
The note with it: domain or fragment; chains chain; modification not given; acetyl-Lys4 (mature histone numbering; entry K5); terminal caps or added residues not given.

For assay [2], the target named is Unmodified H3 (1–19) (Homo sapiens). The note with it: domain or fragment; chains chain; modification not given.
Assay [3] concerns the target T2, H3K14ac (1–19) peptide (Homo sapiens).
T2 chain: ARTKQTARKSTGGKAPRKQ
Conditions: domain or fragment; chains chain; modification not given; acetyl-Lys14 (mature histone numbering; entry K15); terminal caps or added residues not given.

B1: AF9-YEATS domain (residues 1–138) for X-ray analysis and ITC, P42568 1-138 (protein)
chain: MASSCAVQVKLELGHRAQVRKKPTVEGFTHDWMVFVRGPEHSNIQHFVEKVVFHLHESFPRPKRVCKDPPYKVEESGYAGFILPIEVYFKNKEEPRKVRFDYDLFLHLEGHPPVNHLRCEKLTFNNPTEDFRRKLLKA
A word on the Kd: it is the free concentration of one partner at which half of the binding sites on the other are occupied at equilibrium, for simple one-to-one binding. Read a high Kd as a looser complex. As to B1, the Kd in assay [1] was 320 µM; in assay [2], above 1000 µM; in assay [3], above 1000 µM.
